Experimental findings from article PMC8225672 are described below.

pKi: −log10 of the molar value.

The target in test [1] is Human GHSR (growth hormone secretagogue receptor, ghrelin receptor), purified and inserted into lipid nanodiscs (human) (UniProt Q92847). Briefly: FRET or BRET; competition: time-resolved energy transfer between purified GHSR labeled with Lumi4-Tb at its N-terminus and dy647-labeled ghrelin (0.1 µM range), increasing competitor; GHSR in 17 nm nanodiscs (cNW30 scaffold); isolated receptor without G protein.

The target is the same in test [2]. Briefly: FRET or BRET; competition: time-resolved energy transfer between purified GHSR labeled with Lumi4-Tb at its N-terminus and dy647-labeled ghrelin (0.1 µM range), increasing competitor; GHSR in 12 nm nanodiscs (MSP1E3D1(-) scaffold); isolated receptor without G protein.

Sequence of UniProt Q92847 (Q92847 whole entry): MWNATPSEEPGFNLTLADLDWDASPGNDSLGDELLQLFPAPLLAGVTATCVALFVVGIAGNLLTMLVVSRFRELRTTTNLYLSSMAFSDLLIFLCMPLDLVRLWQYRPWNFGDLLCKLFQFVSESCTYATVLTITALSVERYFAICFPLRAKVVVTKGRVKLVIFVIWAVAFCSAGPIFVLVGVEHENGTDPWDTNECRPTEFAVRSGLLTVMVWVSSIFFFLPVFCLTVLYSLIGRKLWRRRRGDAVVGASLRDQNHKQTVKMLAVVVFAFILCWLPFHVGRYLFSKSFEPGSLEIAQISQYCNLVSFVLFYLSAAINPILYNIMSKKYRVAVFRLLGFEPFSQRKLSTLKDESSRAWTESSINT

For “LEAP2(1-14), the active N-terminal region of the natural inverse agonist LEAP2 (peptide)”, the pKi is 8.34 in test [1] and 8.17 in test [2].

As a reminder, the pKi is −log10 of the Ki, conventionally taken in molar units. Read a low pKi as a large Ki.
